We go through four substances from publication PMC8849478.

Experiment [1] has as its target human haptoglobin, mixture of phenotypes Hp2-1 and Hp2-2 (human) (UniProt P00738). In words: stopped-flow fluorescence spectrometry; Hp (0.25 μM, Hb tetramer binding basis) rapidly mixed with excess Hb/metHb at various concentrations; excitation 285 nm, emission 310 nm; monoexponential fit gives pseudo first order constants, linear regression against Hb/metHb concentration gives the bimolecular rate constant.

Experiment [2] concerns the target human hemoglobin (human) (UniProt P69905). In words: SEC; tetramer to dimers; SEC-HPLC of samples at 1.25, 2.5, 5, 10 and 20 μM (heme basis) after incubation in 0.1 M PBS pH 7.4 at 4°C for one week; fraction of tetramers by deconvolution, Kd from the intercept of the linearised plot (Eq 3).
Experiment [3] has as its target human methemoglobin (human) (UniProt P69905). Described as above.

Sequence of human hemoglobin, P69905 1-142; P68871 1-147 (complex; other documents disagree on this pair) (P69905 whole entry): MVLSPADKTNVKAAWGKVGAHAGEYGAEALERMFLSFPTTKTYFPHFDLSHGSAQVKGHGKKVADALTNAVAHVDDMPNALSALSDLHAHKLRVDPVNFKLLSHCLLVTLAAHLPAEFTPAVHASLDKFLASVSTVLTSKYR
Sequence of human hemoglobin, P69905 1-142; P68871 1-147 (complex; other documents disagree on this pair) (P68871 whole entry): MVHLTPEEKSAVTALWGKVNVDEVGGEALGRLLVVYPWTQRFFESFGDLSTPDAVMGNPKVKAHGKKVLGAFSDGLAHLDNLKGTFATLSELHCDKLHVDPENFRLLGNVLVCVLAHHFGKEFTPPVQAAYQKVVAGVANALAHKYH
Sequence of human methemoglobin, P69905 1-142; P68871 1-147 (complex; other documents disagree on this pair) (P69905 whole entry): as the sequence (P69905 whole entry) above
Sequence of human methemoglobin, P69905 1-142; P68871 1-147 (complex; other documents disagree on this pair) (P68871 whole entry): as the sequence (P68871 whole entry) above
Sequence of bovine methemoglobin (P01966 whole entry): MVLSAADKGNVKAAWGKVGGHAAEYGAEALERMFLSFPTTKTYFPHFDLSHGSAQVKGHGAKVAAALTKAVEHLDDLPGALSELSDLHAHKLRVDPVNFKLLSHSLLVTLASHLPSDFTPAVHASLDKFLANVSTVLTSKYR
Sequence of bovine methemoglobin (P02070 whole entry): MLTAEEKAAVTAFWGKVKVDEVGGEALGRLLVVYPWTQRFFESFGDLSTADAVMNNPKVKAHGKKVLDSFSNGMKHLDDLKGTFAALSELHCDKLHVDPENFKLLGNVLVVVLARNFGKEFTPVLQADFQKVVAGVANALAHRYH
Sequence of bovine hemoglobin (P01966 whole entry): as the sequence (P01966 whole entry) above
Sequence of bovine hemoglobin (P02070 whole entry): as the sequence (P02070 whole entry) above

For the substance “bovine hemoglobin (from UniProt P01966 1-142; P02070 1-145) (complex)”, the kon in experiment [1] is 147000 M⁻¹ s⁻¹.
The same measure, in the same setting: the figure for “bovine methemoglobin (from UniProt P01966 1-142; P02070 1-145) (complex)” is 140000 M⁻¹ s⁻¹.
In experiment [2], “human hemoglobin, P69905 1-142; P68871 1-147 (complex; other documents disagree on this pair)” returned a Kd of 230 nM.
With “human methemoglobin, P69905 1-142; P68871 1-147 (complex; other documents disagree on this pair)”, the Kd in experiment [3] stood at 450 nM.
